Test results taken from patent publication US20220380471A1 (US Dept. of Health and Human Services, published 2022).
Changes are numbered by the printed parent chain.

T1: hB7H3-His (human, UniProt Q5ZPR3 29-461, limits assumed)
T1 construct: not shown: His tag
T1 sequence (looked up): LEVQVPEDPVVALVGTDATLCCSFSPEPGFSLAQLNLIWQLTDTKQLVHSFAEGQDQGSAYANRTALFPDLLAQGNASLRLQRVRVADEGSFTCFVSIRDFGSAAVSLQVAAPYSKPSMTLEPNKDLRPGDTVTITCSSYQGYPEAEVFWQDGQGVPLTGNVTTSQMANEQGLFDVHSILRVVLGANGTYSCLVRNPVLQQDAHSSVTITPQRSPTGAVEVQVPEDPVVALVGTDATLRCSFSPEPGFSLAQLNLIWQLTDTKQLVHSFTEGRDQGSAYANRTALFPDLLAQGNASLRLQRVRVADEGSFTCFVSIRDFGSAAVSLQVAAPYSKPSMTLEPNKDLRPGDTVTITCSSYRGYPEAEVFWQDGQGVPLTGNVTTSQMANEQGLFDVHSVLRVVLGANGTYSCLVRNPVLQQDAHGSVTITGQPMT

T2: rat B7H3-His (rat, UniProt Q7TPB4 29-244, limits assumed)
T2 construct: not shown: His tag
T2 sequence (looked up): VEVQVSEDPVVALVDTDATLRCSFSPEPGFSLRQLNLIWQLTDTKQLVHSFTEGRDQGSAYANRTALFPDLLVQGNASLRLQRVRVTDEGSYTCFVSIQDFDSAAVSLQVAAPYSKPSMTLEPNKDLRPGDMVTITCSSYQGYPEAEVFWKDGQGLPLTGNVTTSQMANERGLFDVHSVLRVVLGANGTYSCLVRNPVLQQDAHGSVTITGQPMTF

T3: monkey B7H3-His (monkey)
T3 chain: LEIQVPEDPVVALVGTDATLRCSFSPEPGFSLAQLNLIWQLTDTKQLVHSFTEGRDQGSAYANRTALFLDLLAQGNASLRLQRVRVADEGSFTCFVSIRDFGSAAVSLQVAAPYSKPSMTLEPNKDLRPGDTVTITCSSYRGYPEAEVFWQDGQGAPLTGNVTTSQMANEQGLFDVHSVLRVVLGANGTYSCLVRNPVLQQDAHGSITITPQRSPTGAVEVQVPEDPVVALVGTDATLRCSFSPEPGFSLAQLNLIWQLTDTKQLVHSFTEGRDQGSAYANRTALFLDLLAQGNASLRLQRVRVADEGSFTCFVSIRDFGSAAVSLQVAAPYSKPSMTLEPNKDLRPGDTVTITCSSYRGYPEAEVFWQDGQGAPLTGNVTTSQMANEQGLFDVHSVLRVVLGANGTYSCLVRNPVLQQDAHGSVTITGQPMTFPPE

T4: mouse B7H3-His (mouse, UniProt Q8VE98 29-244, limits assumed)
T4 construct: also called recombinant mouse B7H3-His protein; not shown: His tag
T4 sequence (looked up): T2 sequence (looked up) with R33A, A62S, D131N, L156V, M214L

T5: human B7H3 (human, UniProt Q5ZPR3 29-466, limits assumed)
T5 construct: also called human B7H3 protein
T5 sequence (looked up): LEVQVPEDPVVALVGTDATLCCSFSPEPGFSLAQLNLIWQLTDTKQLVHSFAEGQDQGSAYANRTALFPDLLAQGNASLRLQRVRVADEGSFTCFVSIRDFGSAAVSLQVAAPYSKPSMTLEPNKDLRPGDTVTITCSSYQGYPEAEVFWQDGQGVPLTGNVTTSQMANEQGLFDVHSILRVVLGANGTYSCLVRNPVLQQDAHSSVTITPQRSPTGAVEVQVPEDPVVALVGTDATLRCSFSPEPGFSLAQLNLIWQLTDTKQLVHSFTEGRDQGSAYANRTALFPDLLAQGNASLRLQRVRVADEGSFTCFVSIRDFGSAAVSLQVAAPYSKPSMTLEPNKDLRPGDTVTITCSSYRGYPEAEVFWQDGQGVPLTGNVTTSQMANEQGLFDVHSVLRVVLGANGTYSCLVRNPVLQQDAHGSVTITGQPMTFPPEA

T6: B7H3-hFc (human, UniProt Q5ZPR3 29-456)
T6 construct: also called recombinant B7H3-hFc; B7H3 ECD fused with human IgG1 Fc; not shown: human IgG1 Fc
T6 sequence: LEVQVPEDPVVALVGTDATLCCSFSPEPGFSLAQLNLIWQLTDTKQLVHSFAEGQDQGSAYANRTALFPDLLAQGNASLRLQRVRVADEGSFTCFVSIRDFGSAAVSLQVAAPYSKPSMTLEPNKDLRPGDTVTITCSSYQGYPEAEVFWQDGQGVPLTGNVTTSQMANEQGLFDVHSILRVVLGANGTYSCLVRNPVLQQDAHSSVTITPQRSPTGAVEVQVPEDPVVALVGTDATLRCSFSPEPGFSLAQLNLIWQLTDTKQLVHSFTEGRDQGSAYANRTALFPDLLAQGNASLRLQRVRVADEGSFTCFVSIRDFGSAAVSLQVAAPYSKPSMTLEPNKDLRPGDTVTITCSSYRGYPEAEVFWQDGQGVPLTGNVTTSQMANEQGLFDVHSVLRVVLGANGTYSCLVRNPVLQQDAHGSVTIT

B1: RWB2 (VHH)
VHH: AVQLVDSGGGSVQAGGSLRLSCVVSGYAFSTYDMAWFRQAPGEKCEWVSTVTNNGRTFYADSVKGRFIISRDNAKNILYLQMNSLKPEDTAVYSCAAAGVRWRCASGGNEGTQVTVSS
notes: Camel VHH; tag not described; also called camel antibody RWB2
B2: RFA1 (other)
VH: QSLEESGGGLVTPGGTLTLTCTVSGFSLSSYGMSWVRQAPGKGLEWIGSMANNGDPYYASWAKGRFTISKTSTTVDLKITSPTTEDTATYFCVRAPWGSHSMWGPGTLVTVSSGGGGSGGGGSGGGGSDPVLTQTAGGGTNVEIK
notes: Rabbit VH single-domain antibody expressed in E. coli as VH-His-FLAG fusion; also called rabbit antibody RFA1; Al [sic]; not shown: 6x His tag and FLAG tag at the C-terminus
B3: RFB1 (other)
VH: QEQLKESGGRLVTPGTPLTLTCTVSGFSPNNYGVSWVRQPPGKGLEWIGMSSTAGATYYANWAKGRFTISKTSTTVDLEITSPTTEDTATYFCAKGTPSLSYGNIWGPGTLVTVSSGGGGSGGGGSGGGGSAQGPTQTPGGGGSGTEVVVK
notes: Rabbit VH single-domain antibody expressed in E. coli as VH-His-FLAG fusion; also called rabbit antibody RFB1; R1-B1; not shown: 6x His tag and FLAG tag at the C-terminus

Columns and labels:
[1] = target: T1, hB7H3-His; experiment: ELISA, purified VHH
Outline: (§1)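 Binding of the purified camel VHH nanobodies is given as the ELISA signal. The immobilised recombinant proteins included B7H3 fusion proteins and proteins other than B7H3. The nanobodies were isolated beforehand by phage panning on recombinant B7H3-Fc.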

[2] = target: Non-relevant antigen; experiment: phage ELISA, cross-species
Outline: (§2)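 For 3 rounds, recombinant B7H3-Fc protein served as the panning target for camel VHH phage drawn from eight individual camels' libraries. Each entry gives the ELISA signal for binding of selected phage to an immobilised antigen, either human or other-species B7H3 or a control protein, measured by phage ELISA.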

[3] = target: T2, rat B7H3-His; experiment: phage ELISA, cross-species
Outline: as §2

[4] = target: T3, monkey B7H3-His; experiment: phage ELISA, cross-species
Outline: as §2

[5] = target: T4, mouse B7H3-His; experiment: phage ELISA, cross-species
Outline: as §2

[6] = target: T5, human B7H3; experiment: phage ELISA, cross-species
Outline: as §2

[7] = target: Non-relevant antigen; experiment: ELISA, purified VHH
Outline: as §1

[8] = target: T2, rat B7H3-His; experiment: ELISA, purified VHH
Outline: as §1

[9] = target: T3, monkey B7H3-His; experiment: ELISA, purified VHH
Outline: as §1

[10] = target: T1, hB7H3-His; experiment: ELISA, purified VHH; remark: listed apart in the source
Outline: as §1

[11] = target: IgG control; experiment: phage ELISA
Outline: as §2

[12] = target: PD-L1; experiment: ELISA, purified VHH, cross-reaction
[13] = target: T6, B7H3-hFc; experiment: ELISA, B7H3-hFc coated, VH-His-FLAG detected with anti-FLAG-HRP
Excerpt: FIGS. 4A-4C: Binding properties of the B7H3 binders. (FIG. 4A) SDS-PAGE analysis of the purified A1 and B1 binders (VH-His-FLAG fusion) from E. coli. Two micrograms of purified B7H3-hFc, non-reduced (Non.) or reduced (Red.) by β-mercaptoethanol, were separated on an 8% SDS-PAGE gel. Protein bands were visualized by Coomassie blue R-250 staining. (FIG. 4B) Protein binding affinity measurement by ELISA. Five micrograms of B7H3-hFc were coated on the ELISA plate, and different concentrations of domain antibodies were incubated with the plate, and binding was detected by HRP conjugated anti-FLAG mouse monoclonal antibody M2. The binding curves were plotted using the software GraphPad Prism and the calculated EC50 values were determined by the software's algorithm of hyperbola one site binding. (FIG. 4C) Cell binding determination by flow cytometry. Ten microgram per mL domain antibody was co-incubated with one million cells. Antibody binding was visualized by APC conjugated anti-FLAG monoclonal antibody. The curves labelled “1” represent cells stained with secondary antibody only; the curves labelled “2” represent cells stained with A1 or B1 domain antibody.
The VH coding sequences of binders A1 and B1 were fused with His-FLAG tag at their C-termini and cloned into an E. coli expression vector. […] The purified yield was 2 mg/L (A1) and 10 mg/L fermentation (B1) respectively. […]

Chain of PD-L1 (Q9NZQ7 whole entry): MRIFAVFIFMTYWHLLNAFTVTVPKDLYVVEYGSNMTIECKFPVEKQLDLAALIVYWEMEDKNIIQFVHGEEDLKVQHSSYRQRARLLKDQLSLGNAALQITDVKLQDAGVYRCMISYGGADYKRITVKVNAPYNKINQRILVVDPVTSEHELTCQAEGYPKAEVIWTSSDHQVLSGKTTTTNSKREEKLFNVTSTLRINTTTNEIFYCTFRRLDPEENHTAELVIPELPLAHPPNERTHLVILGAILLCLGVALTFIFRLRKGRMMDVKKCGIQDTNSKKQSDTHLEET

Binder | binding result [1] | ELISA signal [2] | ELISA signal [3] | ELISA signal [4] | ELISA signal [5] | ELISA signal [6] | ELISA signal [7] | ELISA signal [8] | ELISA signal [9] | ELISA signal [10] | ELISA signal [11] | ELISA signal [12] | EC50 [13]
B1 | no binding | 0.0684 | 0.981 | 0.578 | 1.05 | 2.53 | 0.115 | 0.0986 | 0.0799 | 0.152 | 0.0777 | 0.0522 | –
B2 | – | – | – | – | – | – | – | – | – | – | – | – | 403 nM
B3 | – | – | – | – | – | – | – | – | – | – | – | – | 189 nM
